Test results as given in the supplement of paper PMC10567573.
± gives the standard deviation.

Assay: protein stability index of a GFP-peptide fusion (GPS, HEK-293T) (PSI 1-6); higher = more stable
[1] = treatment: DMSO, c terminus: a fixed tail appended
[2] = treatment: MLN4924 1 uM, 8 h, c terminus: a fixed tail appended
[3] = treatment: DMSO, c terminus: native
[4] = treatment: MLN4924 1 uM, 8 h, c terminus: native
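Note: 24-mer peptide tiles fused after GFP, lentivirally expressed, FACS-sorted into six equal bins by GFP/DsRed ratio, decoded by Illumina sequencing, PSI is the read-weighted mean bin number.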

LYGQRNSAPEQELLVQDATPVSNS [GFOD1]
protein stability index [1]: 4.82 ± 0.098
protein stability index [2]: 4.76 ± 0.11

LYPEGIGARQQQVTTYLHKDYNNL [POMT2]
protein stability index [1]: 3.25 ± 0.15
protein stability index [2]: 3.35 ± 0.26

LYSMECAFHPLFSLTSGACRLDYR [TCF25]
protein stability index [1]: 2.25 ± 0.72
protein stability index [2]: 2.38 ± 0.71

LYVDSLFFLRGRLDQLLRHVMNPL [PRAME]
protein stability index [1]: 3.38 ± 0.99
protein stability index [2]: 1.89 ± 0.53

MAAESLPFSFGTLSSWELEAWYED [DDIT3]
protein stability index [1]: 3.21 ± 0.074
protein stability index [2]: 3.45 ± 0.23

MAATCEISNIFSNYFSAMYSSEDS [ELF3]
protein stability index [1]: 2.29 ± 0.22
protein stability index [2]: 2.3 ± 0.21

MAEHRSMDGRMEAATRGGSHLQAA [SCNN1D]
protein stability index [1]: 4.56 ± 0.27
protein stability index [2]: 4.648 ± 0.04

MAFFLCLGLALGAVFSFLFRAIV [SLC29A1]
protein stability index [3]: 4.33 ± 0.19
protein stability index [4]: 4.14 ± 0.24

MAKFGVHRILLLAISLTKCLESTK [MIA2]
protein stability index [1]: 3.27 ± 0.52
protein stability index [2]: 3.06 ± 0.8

MAKKHKKIRLRCQKGIPPSLRGRA [TBC1D10A]
protein stability index [1]: 3.29 ± 0.18
protein stability index [2]: 3.35 ± 0.29

MAMAVMLYYSNFVLALEERFGVRP [MFSD9]
protein stability index [1]: 3.3 ± 0.47
protein stability index [2]: 3.41 ± 0.49

MAQTVPPCELPCKEYDVARNTGAY [TEKT4]
protein stability index [1]: 4.16 ± 0.27
protein stability index [2]: 4.08 ± 0.26

MDADMDYERPNVETIKCVVVGDNA [RHOBTB1]
protein stability index [1]: 4.8 ± 0.1
protein stability index [2]: 4.83 ± 0.14

MDLKTAVFNAARDGKLRLLTKLLA [FEM1C]
protein stability index [1]: 2.17 ± 0.2
protein stability index [2]: 2.3 ± 0.32

MDQLQGLGSDYEQPLEVKNNSNLQ [CDC25A]
protein stability index [1]: 5.09 ± 0.17
protein stability index [2]: 4.85 ± 0.18

MEKKSKPKNSVWKRLKSPFRKKKD [RIT1]
protein stability index [1]: 3.69 ± 0.12
protein stability index [2]: 3.88 ± 0.3

METQAEQQELETLPTTKMAQTNPT [CRYBA1]
protein stability index [1]: 5.24 ± 0.3
protein stability index [2]: 5.3 ± 0.29

MGEPAGVAGTMESPFSPGLFHRLD [ATF6]
protein stability index [1]: 3.58 ± 0.14
protein stability index [2]: 3.79 ± 0.36

MGETKIIYHLDGQETPYLVKLPLP [DVL3]
protein stability index [1]: 2.2 ± 0.3
protein stability index [2]: 2.3 ± 0.23

MGPKTLPQLAGKWQVLCMLSLCCW [PCDHGC5]
protein stability index [1]: 3.21 ± 0.49
protein stability index [2]: 3.17 ± 0.76

MGRKKKKQLKPWCWYCNRDFDDEK [ZNF207]
protein stability index [1]: 2.39 ± 0.33
protein stability index [2]: 3.05 ± 0.34

MIQTSKTEITELRRTLQGLEIELQ [KRT13]
protein stability index [1]: 3.02 ± 0.28
protein stability index [2]: 3.07 ± 0.24

MLERIKHEKTVDIYGHVTLMRAQR [PTPRD]
protein stability index [1]: 1.73 ± 0.22
protein stability index [2]: 2.16 ± 0.38

MLGKYGSSLEFTELLTLVNRKVSQ [CASP6]
protein stability index [1]: 2.29 ± 0.23
protein stability index [2]: 2.34 ± 0.43

MLLPQLCWLPLLAGLLPPVPAQKF [SMOC2]
protein stability index [1]: 3.51 ± 0.69
protein stability index [2]: 3.67 ± 1.4

MNDFGIKNMDQVAPVANSYRGTLK [ETS2]
protein stability index [1]: 4.06 ± 0.31
protein stability index [2]: 4.02 ± 0.26

MPQSEEHLLEAEPLSPIQASSVHL
protein stability index [1]: 4.87 ± 0.17
protein stability index [2]: 4.94 ± 0.17

MRATPLAAPAGSLSRKKRLELDDN [TRIB3]
protein stability index [1]: 4.57 ± 0.14
protein stability index [2]: 4.86 ± 0.23

MRELGLLIFFLFIGVILFSSAVYF [KCNA4]
protein stability index [1]: 2.91 ± 0.35
protein stability index [2]: 2.03 ± 0.64

MRSGEPACTMDQARGLDDAAARGG [ZBED3]
protein stability index [1]: 5 ± 0.23
protein stability index [2]: 5.06 ± 0.15

MSGRSKRESRGSTRGKRESESRGS [USP39]
protein stability index [1]: 4.96 ± 0.12
protein stability index [2]: 5 ± 0.46

MSHHQEELVPKQPQKRKPQEQLLE [SLC2A12]
protein stability index [1]: 5.25 ± 0.14
protein stability index [2]: 5.34 ± 0.15

MTEEVIVIAKWDYTAQQDQELDIK [NCK2]
protein stability index [1]: 2.92 ± 0.29
protein stability index [2]: 2.97 ± 0.33

MTPAEAEMHFLENAKKLSMYGVDL [EPB41L3]
protein stability index [1]: 3 ± 0.29
protein stability index [2]: 3.03 ± 0.52

NAGQSDNRSLAEACSEGDVNAVRK [ANKRD17]
protein stability index [1]: 5.56 ± 0.15
protein stability index [2]: 5.46 ± 0.15

NAPKFQAENLDVKINENVAAGMRF [PCDHGA10]
protein stability index [1]: 3.77 ± 0.61
protein stability index [2]: 3.86 ± 0.45

NAVRSAMKSEEQKIKDARKGPLVP [KMT5A]
protein stability index [1]: 4.75 ± 0.11
protein stability index [2]: 5.07 ± 0.13

NDYICPATNQCTIDKNRRKSCQAC [ESR2]
protein stability index [1]: 4.44 ± 0.21
protein stability index [2]: 4.83 ± 0.17

NESRRQIQSLTCEVDGLRGTNEAL [PRPH]
protein stability index [1]: 4.7 ± 0.29
protein stability index [2]: 5.11 ± 0.056

NFCKHNGSKNVFSTFRTPAVLFTG [ATL3]
protein stability index [1]: 2.21 ± 0.32
protein stability index [2]: 2.33 ± 0.13

NGDITSFLLSVYAPGSSVEYQCQN [CFHR2]
protein stability index [1]: 2.38 ± 0.58
protein stability index [2]: 2.09 ± 0.24

NGKEFNNWFNVTGSDKCVFLKNTE [CD69]
protein stability index [1]: 3.2 ± 0.31
protein stability index [2]: 3.08 ± 0.42

NHQKDLFRRTDGRCLIWGRKPKVI [DHCR7]
protein stability index [1]: 2.66 ± 0.27
protein stability index [2]: 2.74 ± 0.3

NHSLARHADILAAVETRLSLLNMT [FBXO28]
protein stability index [1]: 2.53 ± 0.13
protein stability index [2]: 2.71 ± 0.19

NIKIWLSLRSYLKRRGPQRSVDVV [PHTF1]
protein stability index [1]: 2.43 ± 0.35
protein stability index [2]: 2.54 ± 0.36

NILPNTQKVTCFYQPAPYFAAEAR [TENT5D]
protein stability index [1]: 2.49 ± 0.32
protein stability index [2]: 2.59 ± 0.23

NITRIYNIGKSHQGLKLYAVEISD [CPXM2]
protein stability index [1]: 2.34 ± 0.43
protein stability index [2]: 2.31 ± 0.14

NKCSVYPLTFDKNENMAAKKKSVA [GNB5]
protein stability index [1]: 4.09 ± 0.16
protein stability index [2]: 4.39 ± 0.48

NKTDVVLILELVSGGELFDFLAEK [DAPK3]
protein stability index [1]: 2.55 ± 0.58
protein stability index [2]: 2.68 ± 0.96

NKTNKNSVSSCDQEHQSALEEAKQ [SMOC2]
protein stability index [1]: 5.13 ± 0.43
protein stability index [2]: 5.57 ± 0.3

NLKTLDSKPGVYTSYKPYLNRDEE [DENND6A]
protein stability index [1]: 3.6 ± 0.56
protein stability index [2]: 3.63 ± 0.38

NNEAFMNQEITKAFHVRRTNRVKE [RHOBTB2]
protein stability index [1]: 4.44 ± 0.25
protein stability index [2]: 4.48 ± 0.21

NPALQLILTRTDKTLNKKLGQNK [TOR1AIP2]
protein stability index [3]: 3.87 ± 0.16
protein stability index [4]: 3.89 ± 0.12

NQIMPKTGFLIIILAIIAKEGDCA [MAGEA6]
protein stability index [1]: 2.98 ± 0.45
protein stability index [2]: 2.47 ± 0.61

NQLLVADVKRLGKQNARFLTSMRR [STX11]
protein stability index [1]: 2.97 ± 0.079
protein stability index [2]: 3.08 ± 0.41

NQYATCRLCGRQVSRGPGVNVGTT [ZBED2]
protein stability index [1]: 2.39 ± 0.27
protein stability index [2]: 2.58 ± 0.46

NSDLNNLLFCCQCVDVVFYNPDLK [RHOBTB3]
protein stability index [1]: 2.28 ± 0.99
protein stability index [2]: 2.59 ± 0.6

NSKPQDLTDAYGPPSNFLEIDIFN [SNX12]
protein stability index [1]: 3.63 ± 0.18
protein stability index [2]: 3.83 ± 0.24

NVEAQLSEIRCDLERQNQEYQVLL [KRT36]
protein stability index [1]: 3.58 ± 0.29
protein stability index [2]: 3.53 ± 0.21

NWQPAVPLMHMLHLSGALDFPRQS [SPATS1]
protein stability index [1]: 2.07 ± 0.39
protein stability index [2]: 2.15 ± 0.52

NYGADTNTRNYEGQTPLAVSISIS [ASB7]
protein stability index [1]: 2.65 ± 0.45
protein stability index [2]: 2.77 ± 0.48

PAEESKPAPSPHEEPCSPGLLQDQ [CBY2]
protein stability index [1]: 5.33 ± 0.27
protein stability index [2]: 5.14 ± 0.31

PAGCMYIHGGVVNIHENKRTGSLF [KLHDC10]
protein stability index [1]: 2.52 ± 0.18
protein stability index [2]: 2.45 ± 0.26

PAHLYFQAHGSEGLTFQGLLPLTE [PLEKHN1]
protein stability index [1]: 2.85 ± 0.045
protein stability index [2]: 2.9 ± 0.083

PALDWDSVHVPGPHAMTIQELVDY [PTPN9]
protein stability index [1]: 4.08 ± 0.2
protein stability index [2]: 4.31 ± 0.15

PAQVPREVLKVQTHLENPTRYHLQ [TFE3]
protein stability index [1]: 3.75 ± 0.43
protein stability index [2]: 3.82 ± 0.093

PARDYSQYYRTIEELQNKILTATV [KRT17]
protein stability index [1]: 2.28 ± 0.2
protein stability index [2]: 2.34 ± 0.21

PCKTRDDEPVCGRPLGIRAGPNGT [APMAP]
protein stability index [1]: 3.9 ± 0.36
protein stability index [2]: 4.14 ± 0.093

PDDPEHLAARRQWRDECLMRLAKL [CRYL1]
protein stability index [1]: 3.66 ± 0.6
protein stability index [2]: 3.83 ± 0.36

PEAISPDLVKKIRDFHRKILTLPE [TRIM15]
protein stability index [1]: 2.51 ± 0.17
protein stability index [2]: 2.68 ± 0.37

PEEPLNGESYESCCPTSREAAVEA [FEM1A]
protein stability index [1]: 5.37 ± 0.18
protein stability index [2]: 5.28 ± 0.31

PEGLDSDFLAVLSDYPSPDISPPI [SLA]
protein stability index [1]: 4.08 ± 0.11
protein stability index [2]: 4.14 ± 0.097

PELMEHTEAESEQEGSSGMELSWG [TEX19]
protein stability index [1]: 5.4 ± 0.32
protein stability index [2]: 5.32 ± 0.35

PELSYRVCVGSDVTSIHKYMVRRY [MYORG]
protein stability index [1]: 2.31 ± 0.14
protein stability index [2]: 2.27 ± 0.24

PENQEYFEKHRWPPVWYLKEEDHY [RHOBTB2]
protein stability index [1]: 3.42 ± 0.23
protein stability index [2]: 3.57 ± 0.41

PETKQRKLSPLRLSVSNNQEPDFI [KMT2E]
protein stability index [1]: 4.16 ± 0.24
protein stability index [2]: 4.38 ± 0.32

PFGILSPNVLCSMSGKSPVESSLN [FBXO34]
protein stability index [1]: 2.88 ± 0.33
protein stability index [2]: 2.64 ± 0.37

PFIVTLEGNALQGPILQKDYVQLE [ZNF449]
protein stability index [1]: 2.46 ± 0.18
protein stability index [2]: 2.59 ± 0.31

PKKDLEDGEVPQHAGKKGKLSEHL [BRD3]
protein stability index [1]: 5.18 ± 0.26
protein stability index [2]: 5.3 ± 0.26

PKKSAPSAVARSNSWMGSQGPMSQ [RBMY1A1]
protein stability index [1]: 4.08 ± 0.13
protein stability index [2]: 4.28 ± 0.2

PKLFCPKNRSFDIDAIYSVIDDAK [PLD5]
protein stability index [1]: 3 ± 0.62
protein stability index [2]: 2.89 ± 0.27

PKRRWLFWNSPSSPSSSAASSSSP [RHOBTB2]
protein stability index [1]: 3.57 ± 0.2
protein stability index [2]: 3.75 ± 0.18

PLQNQKILKRTGQRYEHGRTLKSY [ZNF649]
protein stability index [1]: 2.89 ± 0.45
protein stability index [2]: 3.53 ± 0.41

PLSLYGQLLWREFFYTAATNNPRF [CRY1]
protein stability index [1]: 2.79 ± 0.46
protein stability index [2]: 2.5 ± 0.72

PNLSPHAPWNYHYHCPGSPDHQVP [TRAF3IP2]
protein stability index [1]: 3.29 ± 0.34
protein stability index [2]: 3.54 ± 0.32

PPPDVTQLTPPSHDLTDNIFPRLV [ANKRD17]
protein stability index [1]: 4.04 ± 0.34
protein stability index [2]: 4.06 ± 0.16

PPSNFLEIDIFNPQTVGVGRARFT [SNX12]
protein stability index [1]: 3.27 ± 0.34
protein stability index [2]: 3.27 ± 0.21

PQPNYADTLISQESCEKNDPLSLL [PCDHGA10]
protein stability index [1]: 4.83 ± 0.11
protein stability index [2]: 4.85 ± 0.17

PQSPDFLDITNPKAVLENALRNFA [UFD1]
protein stability index [1]: 2.86 ± 0.35
protein stability index [2]: 2.55 ± 0.57
